Among the data in paper PMC6819661 are binding signal (% (reference)) and Kd values, retold here.

In data set [1] the test system is GST-NS2A(58-133) (Zika virus). Description: pull-down. Conditions: EMSA: 50 mM Tris-HCl pH 7.5, 10 mM 2-mercaptoethanol, 2 mM MgCl2, 50 mM KCl, 15 min at 24 C, 100 pM biotinylated RNA, 0.4% agarose; pull-down: Pierce magnetic ….
For another data set, the system named is GST-NS2A (Zika virus). Description: EMSA. Conditions: EMSA: 50 mM Tris-HCl pH 7.5, 10 mM 2-mercaptoethanol, 2 mM MgCl2, 50 mM KCl, 15 min at 24 C, 100 pM biotinylated RNA, 0.4% agarose; pull-down: Pierce magnetic ….

In data set [1], 5' UTR-C66-3' UTR-biotin RNA returned a binding signal (% (reference)) of 100. The Kd in the data set with GST-NS2A (Zika virus) stood at 10.3 nM.
